Experimental data taken from PMC6137974, “FZP determines grain size and sterile lemma fate in rice”.

What was measured:
FZP (FRIZZY PANICLE) [1] = target: T1, FZP (FRIZZY PANICLE) (Oryza sativa, UniProt Q8H3Q1 1-318); test: EMSA; 0.5, 1 and 1.5 ug protein; EMSA, 15 ul, 1 ug biotin probe, 0.5-1.5 ug protein, LightShift Chemiluminescent EMSA Kit (Thermo) binding buffer; salt, pH and temperature not stated; conditions: protein: recombinant; tags: His-SUMO (pET-SUMO); label: 5' biotin; blunt
FZP (FRIZZY PANICLE) [2] = target: T1, FZP (FRIZZY PANICLE); test: EMSA; 1.5 ug protein; EMSA, 15 ul, 1 ug biotin probe, 0.5-1.5 ug protein, LightShift Chemiluminescent EMSA Kit (Thermo) binding buffer; salt, pH and temperature not stated; conditions: protein: recombinant; tags: His-SUMO (pET-SUMO); label: 5' biotin; blunt

T1 sequence (Q8H3Q1 whole entry): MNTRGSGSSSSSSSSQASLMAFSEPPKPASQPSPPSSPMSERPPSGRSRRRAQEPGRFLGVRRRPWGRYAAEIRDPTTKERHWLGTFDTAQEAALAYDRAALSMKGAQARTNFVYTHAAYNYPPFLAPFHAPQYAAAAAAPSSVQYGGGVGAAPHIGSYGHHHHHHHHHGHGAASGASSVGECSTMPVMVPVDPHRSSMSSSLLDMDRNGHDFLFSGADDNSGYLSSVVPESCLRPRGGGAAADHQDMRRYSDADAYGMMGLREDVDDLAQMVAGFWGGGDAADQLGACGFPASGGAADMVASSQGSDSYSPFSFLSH

Binder | binding result (FZP (FRIZZY PANICLE) [1]) | binding result (FZP (FRIZZY PANICLE) [2])
GCC-box probe (3 repeats) (dsDNA) DNA 1: CATAAGAGCCGCCACTCATAAGAGCCGCCACTCATAAGAGCCGCCACT DNA 2: AGTGGCGGCTCTTATGAGTGGCGGCTCTTATGAGTGGCGGCTCTTATG | binds | 
mGCC-box probe (3 repeats) (dsDNA) DNA 1: CATAAGATACTTGACTCATAAGATACTTGACTCATAAGATACTTGACT DNA 2: AGTCAAGTATCTTATGAGTCAAGTATCTTATGAGTCAAGTATCTTATG |  | no binding
DRE probe (3 repeats) (dsDNA) DNA 1: ATACTACCGACATGAGATACTACCGACATGAGATACTACCGACATGAG DNA 2: CTCATGTCGGTAGTATCTCATGTCGGTAGTATCTCATGTCGGTAGTAT | binds | 
mDRE probe (3 repeats) (dsDNA) DNA 1: ATACGTCTTTGACGAGATACGTCTTTGACGAGATACGTCTTTGACGAG DNA 2: CTCGTCAAAGACGTATCTCGTCAAAGACGTATCTCGTCAAAGACGTAT |  | no binding
